Measurements reported in US20110166062A1 (INDIANA UNIVERSITY RESEARCH AND TECHNOLOGY, published 2011).
Bridges are numbered along the chain shown (N, C = ends). Where no end group is shown, it is not given here.

T1: GIP receptor (UniProt P48546 22-466)
T1 sequence (looked up): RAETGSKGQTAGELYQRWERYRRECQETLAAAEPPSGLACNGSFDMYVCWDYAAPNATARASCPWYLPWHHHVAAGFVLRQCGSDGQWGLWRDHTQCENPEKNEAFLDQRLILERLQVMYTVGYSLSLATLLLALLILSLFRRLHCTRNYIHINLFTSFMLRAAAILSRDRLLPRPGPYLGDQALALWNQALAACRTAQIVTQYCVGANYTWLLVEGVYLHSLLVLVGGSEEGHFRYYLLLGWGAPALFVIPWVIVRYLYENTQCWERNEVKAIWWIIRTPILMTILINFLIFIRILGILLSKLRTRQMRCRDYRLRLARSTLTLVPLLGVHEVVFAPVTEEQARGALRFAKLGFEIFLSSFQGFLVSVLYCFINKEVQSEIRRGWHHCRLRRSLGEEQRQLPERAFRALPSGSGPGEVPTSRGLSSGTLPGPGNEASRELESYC

B1: mt-110 (peptide)
peptide: YSQGTFTSDYSIYLDEIHQKDFVNWLLAQ-NH2
modifications: lactam 16-20; N-terminus assumed
SMILES: CC[C@H](C)[C@H](NC(=O)[C@H](CO)NC(=O)[C@H](Cc1ccc(O)cc1)NC(=O)[C@H](CC(=O)O)NC(=O)[C@H](CO)NC(=O)[C@@H](NC(=O)[C@H](Cc1ccccc1)NC(=O)[C@@H](NC(=O)CNC(=O)[C@H](CCC(N)=O)NC(=O)[C@H](CO)NC(=O)[C@@H](N)Cc1ccc(O)cc1)[C@@H](C)O)[C@@H](C)O)C(=O)N[C@@H](Cc1ccc(O)cc1)C(=O)N[C@@H](CC(C)C)C(=O)N[C@@H](CC(=O)O)C(=O)N[C@H]1CCC(=O)NCCCC[C@@H](C(=O)N[C@@H](CC(=O)O)C(=O)N[C@@H](Cc2ccccc2)C(=O)N[C@H](C(=O)N[C@@H](CC(N)=O)C(=O)N[C@@H](Cc2c[nH]c3ccccc23)C(=O)N[C@@H](CC(C)C)C(=O)N[C@@H](CC(C)C)C(=O)N[C@@H](C)C(=O)N[C@@H](CCC(N)=O)C(N)=O)C(C)C)NC(=O)[C@H](CCC(N)=O)NC(=O)[C@H](Cc2c[nH]cn2)NC(=O)[C@H]([C@@H](C)CC)NC1=O
B2: mt-125 (peptide)
peptide: YSQGTFTSDYSIYMDEIHQKDFVNWLLAQ-NH2
modifications: lactam 16-20; N-terminus assumed
SMILES: CC[C@H](C)[C@H](NC(=O)[C@H](CO)NC(=O)[C@H](Cc1ccc(O)cc1)NC(=O)[C@H](CC(=O)O)NC(=O)[C@H](CO)NC(=O)[C@@H](NC(=O)[C@H](Cc1ccccc1)NC(=O)[C@@H](NC(=O)CNC(=O)[C@H](CCC(N)=O)NC(=O)[C@H](CO)NC(=O)[C@@H](N)Cc1ccc(O)cc1)[C@@H](C)O)[C@@H](C)O)C(=O)N[C@@H](Cc1ccc(O)cc1)C(=O)N[C@@H](CCSC)C(=O)N[C@@H](CC(=O)O)C(=O)N[C@H]1CCC(=O)NCCCC[C@@H](C(=O)N[C@@H](CC(=O)O)C(=O)N[C@@H](Cc2ccccc2)C(=O)N[C@H](C(=O)N[C@@H](CC(N)=O)C(=O)N[C@@H](Cc2c[nH]c3ccccc23)C(=O)N[C@@H](CC(C)C)C(=O)N[C@@H](CC(C)C)C(=O)N[C@@H](C)C(=O)N[C@@H](CCC(N)=O)C(N)=O)C(C)C)NC(=O)[C@H](CCC(N)=O)NC(=O)[C@H](Cc2c[nH]cn2)NC(=O)[C@H]([C@@H](C)CC)NC1=O
B3: mt-111 (peptide)
peptide: HSQGTFTSDYSKYLDEIHQKDFVNWLLAQ-NH2
modifications: lactam 16-20; N-terminus assumed
SMILES: CC[C@H](C)[C@@H]1NC(=O)[C@@H](NC(=O)[C@H](CC(=O)O)NC(=O)[C@H](CC(C)C)NC(=O)[C@H](Cc2ccc(O)cc2)NC(=O)[C@H](CCCCN)NC(=O)[C@H](CO)NC(=O)[C@H](Cc2ccc(O)cc2)NC(=O)[C@H](CC(=O)O)NC(=O)[C@H](CO)NC(=O)[C@@H](NC(=O)[C@H](Cc2ccccc2)NC(=O)[C@@H](NC(=O)CNC(=O)[C@H](CCC(N)=O)NC(=O)[C@H](CO)NC(=O)[C@@H](N)Cc2c[nH]cn2)[C@@H](C)O)[C@@H](C)O)CCC(=O)NCCCC[C@@H](C(=O)N[C@@H](CC(=O)O)C(=O)N[C@@H](Cc2ccccc2)C(=O)N[C@H](C(=O)N[C@@H](CC(N)=O)C(=O)N[C@@H](Cc2c[nH]c3ccccc23)C(=O)N[C@@H](CC(C)C)C(=O)N[C@@H](CC(C)C)C(=O)N[C@@H](C)C(=O)N[C@@H](CCC(N)=O)C(N)=O)C(C)C)NC(=O)[C@H](CCC(N)=O)NC(=O)[C@H](Cc2c[nH]cn2)NC1=O
B4: mt-115 (peptide)
peptide: HSQGTFTSDYSKYLDEIHQKDFVNWLLAGGPSSGAPPPS-NH2
modifications: lactam 16-20; N-terminus assumed
SMILES: CC[C@H](C)[C@@H]1NC(=O)[C@@H](NC(=O)[C@H](CC(=O)O)NC(=O)[C@H](CC(C)C)NC(=O)[C@H](Cc2ccc(O)cc2)NC(=O)[C@H](CCCCN)NC(=O)[C@H](CO)NC(=O)[C@H](Cc2ccc(O)cc2)NC(=O)[C@H](CC(=O)O)NC(=O)[C@H](CO)NC(=O)[C@@H](NC(=O)[C@H](Cc2ccccc2)NC(=O)[C@@H](NC(=O)CNC(=O)[C@H](CCC(N)=O)NC(=O)[C@H](CO)NC(=O)[C@@H](N)Cc2c[nH]cn2)[C@@H](C)O)[C@@H](C)O)CCC(=O)NCCCC[C@@H](C(=O)N[C@@H](CC(=O)O)C(=O)N[C@@H](Cc2ccccc2)C(=O)N[C@H](C(=O)N[C@@H](CC(N)=O)C(=O)N[C@@H](Cc2c[nH]c3ccccc23)C(=O)N[C@@H](CC(C)C)C(=O)N[C@@H](CC(C)C)C(=O)N[C@@H](C)C(=O)NCC(=O)NCC(=O)N2CCC[C@H]2C(=O)N[C@@H](CO)C(=O)N[C@@H](CO)C(=O)NCC(=O)N[C@@H](C)C(=O)N2CCC[C@H]2C(=O)N2CCC[C@H]2C(=O)N2CCC[C@H]2C(=O)N[C@@H](CO)C(N)=O)C(C)C)NC(=O)[C@H](CCC(N)=O)NC(=O)[C@H](Cc2c[nH]cn2)NC1=O
B5: mt-124 (peptide)
peptide: HSQGTFTSDYSIYMDEIHQKDFVNWLLAQ-NH2
modifications: lactam 16-20; N-terminus assumed
SMILES: CC[C@H](C)[C@H](NC(=O)[C@H](CO)NC(=O)[C@H](Cc1ccc(O)cc1)NC(=O)[C@H](CC(=O)O)NC(=O)[C@H](CO)NC(=O)[C@@H](NC(=O)[C@H](Cc1ccccc1)NC(=O)[C@@H](NC(=O)CNC(=O)[C@H](CCC(N)=O)NC(=O)[C@H](CO)NC(=O)[C@@H](N)Cc1c[nH]cn1)[C@@H](C)O)[C@@H](C)O)C(=O)N[C@@H](Cc1ccc(O)cc1)C(=O)N[C@@H](CCSC)C(=O)N[C@@H](CC(=O)O)C(=O)N[C@H]1CCC(=O)NCCCC[C@@H](C(=O)N[C@@H](CC(=O)O)C(=O)N[C@@H](Cc2ccccc2)C(=O)N[C@H](C(=O)N[C@@H](CC(N)=O)C(=O)N[C@@H](Cc2c[nH]c3ccccc23)C(=O)N[C@@H](CC(C)C)C(=O)N[C@@H](CC(C)C)C(=O)N[C@@H](C)C(=O)N[C@@H](CCC(N)=O)C(N)=O)C(C)C)NC(=O)[C@H](CCC(N)=O)NC(=O)[C@H](Cc2c[nH]cn2)NC(=O)[C@H]([C@@H](C)CC)NC1=O
B6: mt-120 (peptide)
peptide: YSQGTFTSDYSKYLDEQAAKEFIAWLMNGGPSSGAPPPS-NH2
modifications: lactam 16-20; N-terminus assumed
SMILES: CC[C@H](C)[C@H](NC(=O)[C@H](Cc1ccccc1)NC(=O)[C@H](CCC(=O)O)NC(=O)[C@@H]1CCCCNC(=O)CC[C@H](NC(=O)[C@H](CC(=O)O)NC(=O)[C@H](CC(C)C)NC(=O)[C@H](Cc2ccc(O)cc2)NC(=O)[C@H](CCCCN)NC(=O)[C@H](CO)NC(=O)[C@H](Cc2ccc(O)cc2)NC(=O)[C@H](CC(=O)O)NC(=O)[C@H](CO)NC(=O)[C@@H](NC(=O)[C@H](Cc2ccccc2)NC(=O)[C@@H](NC(=O)CNC(=O)[C@H](CCC(N)=O)NC(=O)[C@H](CO)NC(=O)[C@@H](N)Cc2ccc(O)cc2)[C@@H](C)O)[C@@H](C)O)C(=O)N[C@@H](CCC(N)=O)C(=O)N[C@@H](C)C(=O)N[C@@H](C)C(=O)N1)C(=O)N[C@@H](C)C(=O)N[C@@H](Cc1c[nH]c2ccccc12)C(=O)N[C@@H](CC(C)C)C(=O)N[C@@H](CCSC)C(=O)N[C@@H](CC(N)=O)C(=O)NCC(=O)NCC(=O)N1CCC[C@H]1C(=O)N[C@@H](CO)C(=O)N[C@@H](CO)C(=O)NCC(=O)N[C@@H](C)C(=O)N1CCC[C@H]1C(=O)N1CCC[C@H]1C(=O)N1CCC[C@H]1C(=O)N[C@@H](CO)C(N)=O

Biological target: glucagon receptor (UniProt P47871 26-477, limits assumed)
Sequence (P47871 26-477 limits assumed): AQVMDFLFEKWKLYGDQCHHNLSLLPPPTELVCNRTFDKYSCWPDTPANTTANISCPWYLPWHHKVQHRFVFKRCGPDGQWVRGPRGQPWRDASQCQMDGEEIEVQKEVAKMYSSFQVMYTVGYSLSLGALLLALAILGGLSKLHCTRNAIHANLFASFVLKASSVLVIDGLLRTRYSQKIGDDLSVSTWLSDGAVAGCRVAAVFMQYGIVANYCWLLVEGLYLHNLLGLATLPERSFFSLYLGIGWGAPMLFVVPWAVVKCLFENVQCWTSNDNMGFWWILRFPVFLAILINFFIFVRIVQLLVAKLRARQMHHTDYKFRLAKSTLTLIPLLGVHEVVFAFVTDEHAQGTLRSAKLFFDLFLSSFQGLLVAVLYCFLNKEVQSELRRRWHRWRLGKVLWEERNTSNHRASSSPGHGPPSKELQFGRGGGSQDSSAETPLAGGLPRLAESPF
Assay: cell-based or functional assay

Binder	EC50 [nM]	relative activity [%]
B1	0.43	23.3
B2	5.74	9.06
B3	0.27	85.2
B4	0.44	11.4
YSQGTFTSDYSKYLDEIHQKEFVNWLLAQ-NH2 [mt-118]	0.04	125
B5	2.43	8.64
YSQGTFTSDYSKYLDEIHQKDFVNWLLAGGPSSGAPPPS-NH2 [mt-116]	0.787	18.7
B6	0.074	259

Biological target: GLP-1 receptor (UniProt P43220 24-463, limits assumed)
Assay: cell-based or functional assay

Binder	EC50 [nM]	relative activity [%]
B1	2.02	1.49
B2	1.26	3.17
B3	0.66	10.6
B4	0.15	20
YSQGTFTSDYSKYLDEIHQKEFVNWLLAQ-NH2 [mt-118]	1.28	2.34
B5	0.04	100
YSQGTFTSDYSKYLDEIHQKDFVNWLLAGGPSSGAPPPS-NH2 [mt-116]	3.8	1.07
B6	0.399	13.4

Biological target: T1, GIP receptor
Assay: cell-based or functional assay

Binder	EC50 [nM]	relative activity [%]
B1	0.478	9.62
B2	0.275	19.6
B3	6.26	0.78
B4	3.58	1.31
YSQGTFTSDYSKYLDEIHQKEFVNWLLAQ-NH2 [mt-118]	0.736	6.39
B5	5.79	0.95
YSQGTFTSDYSKYLDEIHQKDFVNWLLAGGPSSGAPPPS-NH2 [mt-116]	0.617	7.62
B6	2.62	1.81
